In the data set the target is T1, OsNPPR1-repeat-MBP (Oryza sativa (rice), UniProt Q6Z2B6 182-806).
T1 sequence: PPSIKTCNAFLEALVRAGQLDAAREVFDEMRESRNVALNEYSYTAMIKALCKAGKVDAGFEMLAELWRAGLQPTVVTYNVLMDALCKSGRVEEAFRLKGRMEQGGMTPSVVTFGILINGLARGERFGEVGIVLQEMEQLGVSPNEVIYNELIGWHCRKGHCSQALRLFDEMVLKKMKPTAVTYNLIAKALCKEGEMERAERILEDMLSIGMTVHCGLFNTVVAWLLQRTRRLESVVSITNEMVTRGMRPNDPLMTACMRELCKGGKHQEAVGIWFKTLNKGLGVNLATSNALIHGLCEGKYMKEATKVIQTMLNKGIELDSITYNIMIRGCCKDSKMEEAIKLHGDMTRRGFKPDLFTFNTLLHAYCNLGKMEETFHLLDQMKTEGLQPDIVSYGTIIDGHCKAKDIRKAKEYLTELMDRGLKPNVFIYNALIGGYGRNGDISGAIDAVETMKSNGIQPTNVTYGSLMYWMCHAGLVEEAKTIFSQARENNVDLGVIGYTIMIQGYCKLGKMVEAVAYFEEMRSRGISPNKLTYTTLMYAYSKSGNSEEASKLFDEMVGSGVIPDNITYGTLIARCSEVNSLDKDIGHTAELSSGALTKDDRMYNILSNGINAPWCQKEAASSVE
Kind of data set: EMSA.

B1: CUCAC probe (ssRNA)
RNA: CUCACCUCACCUCACCUCACCUCACCUCAC
On to B1, for which the binding result is on record as “binds”.

Values taken from PMC6760278.
